From publication PMC7876548, “Methylation of the D2 dopamine receptor affects binding with the human regulatory proteins Par-4 and Calmodulin” (microPublication Biology, 2021) come the findings set out here.

Square brackets hold non-standard residues; d marks the D form. Ends that are not written are not given here. * marks the point of attachment. K(5-FAM) = lysine labeled with 5-carboxyfluorescein (5-FAM), C-terminal, O=C(NCCCC[C@H](N*)C(=O)O)c1ccc2c(c1)C(=O)OC21c2ccc(O)cc2Oc2cc(O)ccc21; Arg(Me2s) = CN=C(NC)NCCC[C@H](N)C(=O)O

For the assay, the target named is T1, human calmodulin (human, UniProt P0DP23 1-149).
T1 construct: Calmodulin, human; in pET-17b; Purification adapted from McCluskey et al. 2007; also called CaM; His-Calmodulin; source: Rosetta E. coli, purified (Ni-NTA, Phenyl-sepharose)
Nature of the assay: fluorescence polarisation; anisotropy; fluorescently labelled D2 peptide at 0.025 µM final, Par-4 or CaM added from 10x stocks of 0-20 µM; 200 mM NaCl, 200 µM CaCl2, 50 mM Tris pH 7.5; room temperature, ten minutes; average of four trials. The conditions noted are these: both partners purified.

B1: methylated D2 peptide (amino acids 208-243 of the human D2 receptor, symmetrically dimethylated at Arg 217 and Arg 219) (peptide)
peptide: VYIKIYIVL[Arg(Me2s)]R[Arg(Me2s)]RKRVNTKRSSRAFRAHLRAPLKGN-{K(5-FAM)}
notes: D2 dopamine receptor, human, amino acids 208-243 of the third intracellular loop; Same peptide as m1 but with symmetric dimethylarginine at 217 and 219; The C-terminal fluorophore is carried on an added lysine (K-5-FAM); source: synthetic peptide (21st Century Biochemicals); not shown: FLAG, N-terminal, kept
The term Kd denotes the equilibrium constant for the complex coming apart. Higher therefore signals a looser complex. Turning to B1, binding was put at a Kd of 136 nM.

B2: unmethylated D2 peptide (amino acids 208-243 of the third intracellular loop of the human D2 receptor) (peptide)
peptide: VYIKIYIVLRRRRKRVNTKRSSRAFRAHLRAPLKGN-{K(5-FAM)}
notes: D2 dopamine receptor, human, amino acids 208-243 of the third intracellular loop; The C-terminal fluorophore is carried on an added lysine (K-5-FAM) after residue 243; source: synthetic peptide (21st Century Biochemicals); not shown: FLAG, N-terminal, kept
With B2, the Kd was 57.5 nM.
